Reference: the supplement of paper PMC9112550, “Optimization of the antimicrobial peptide Bac7 by deep mutational scanning” (BMC Biology, 2022)

tested on: Escherichia coli TOP10; experiment: shrunken log2 fold change of peptide-encoding DNA abundance (4.5 h post-induction vs induction); higher = less antimicrobial activity (less host growth inhibition); conditions: time post-induction: 4.5 h; library: site-saturation at positions 5, 18, 19, 20
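Further: peptides expressed intracellularly from a pBAD plasmid library in pooled LB shake-flask culture, induced with 0.3% L-arabinose, DNA abundance read by NGS, three biological replicates, DESeq2 with apeglm shrinkage.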

Point of comparison: RRIRERPPRLPRPRPRPSLCPRP, “shrunken log2 fold change” value -0.0545. Against it:
- RRIRSRPPRLPRPRPRPTHFPRP — within 0.2 log units, -0.0655
- RRIRARPPRLPRPRPRPICRPRP — higher, 0.349
- RRIRPRPPRLPRPRPRPMVIPRP — within 0.2 log units, -0.0869
- RRIRVRPPRLPRPRPRPRSHPRP — within 0.2 log units, 0.0021
- RRIRHRPPRLPRPRPRPRNNPRP — lower, -0.493
- RRIRWRPPRLPRPRPRPPPTPRP — higher, 1.59
- RRIRRRPPRLPRPRPRPHICPRP — within 0.2 log units, -0.0887
- RRIRWRPPRLPRPRPRPIPSPRP — within 0.2 log units, 0.0317
- RRIRWRPPRLPRPRPRPDQEPRP — within 0.2 log units, -0.00154
- RRIRQRPPRLPRPRPRPNFDPRP — lower, -0.347
- RRIRIRPPRLPRPRPRPPFFPRP — higher, 0.41
- RRIRYRPPRLPRPRPRPDPQPRP — within 0.2 log units, -0.0137
- RRIRFRPPRLPRPRPRPSDQPRP — lower, -0.302
- RRIRRRPPRLPRPRPRPENTPRP — within 0.2 log units, -0.0822
- RRIRKRPPRLPRPRPRPGEPPRP — higher, 0.305
- RRIRQRPPRLPRPRPRPEFEPRP — within 0.2 log units, -0.0193
- RRIRQRPPRLPRPRPRPILLPRP — within 0.2 log units, -0.0814
- RRIRFRPPRLPRPRPRPSCTPRP — lower, -0.407
- RRIRLRPPRLPRPRPRPTNCPRP — within 0.2 log units, -0.0927
- RRIRMRPPRLPRPRPRPDDNPRP — higher, 2.27
- RRIRPRPPRLPRPRPRPGTGPRP — within 0.2 log units, -0.0651
- RRIRLRPPRLPRPRPRPWAMPRP — within 0.2 log units, -0.0431
- RRIRIRPPRLPRPRPRPCFTPRP — lower, -0.519
- RRIRPRPPRLPRPRPRPGGYPRP — higher, 0.25
- RRIRERPPRLPRPRPRPIRSPRP — within 0.2 log units, -0.112
- RRIRERPPRLPRPRPRPAAAPRP — higher, 0.436
- RRIRWRPPRLPRPRPRPRICPRP — within 0.2 log units, -0.0691
- RRIRNRPPRLPRPRPRPPANPRP — higher, 0.262
- RRIRGRPPRLPRPRPRPKRQPRP — higher, 0.377
- RRIRTRPPRLPRPRPRPEAYPRP — within 0.2 log units, -0.12
- RRIRSRPPRLPRPRPRPKCWPRP — higher, 0.359
- RRIRERPPRLPRPRPRPCEIPRP — lower, -0.318
- RRIRQRPPRLPRPRPRPIRSPRP — within 0.2 log units, -0.0132
- RRIRMRPPRLPRPRPRPEKAPRP — higher, 1.52
- RRIRNRPPRLPRPRPRPREHPRP — within 0.2 log units, 0.0287
- RRIRLRPPRLPRPRPRPGTIPRP — lower, -0.689
- RRIRERPPRLPRPRPRPRLGPRP — higher, 0.157
- RRIRCRPPRLPRPRPRPAWLPRP — higher, 0.303
- RRIRIRPPRLPRPRPRPRMVPRP — within 0.2 log units, 0.0922
- RRIRLRPPRLPRPRPRPPWGPRP — higher, 0.203
- RRIRFRPPRLPRPRPRPVHSPRP — within 0.2 log units, -0.126
- RRIRTRPPRLPRPRPRPKMKPRP — lower, -0.554
- RRIRCRPPRLPRPRPRPHTYPRP — lower, -0.578
- RRIRDRPPRLPRPRPRPNYRPRP — within 0.2 log units, -0.152
- RRIRRRPPRLPRPRPRPFQYPRP — within 0.2 log units, -0.0414
- RRIRRRPPRLPRPRPRPFIEPRP — within 0.2 log units, 0.0206
- RRIRRRPPRLPRPRPRPPYRPRP — within 0.2 log units, 0.113
- RRIRPRPPRLPRPRPRPYVSPRP — within 0.2 log units, 0.00613
- RRIRRRPPRLPRPRPRPMPLPRP — higher, 2.47
- RRIRERPPRLPRPRPRPYPQPRP — lower, -0.898
- RRIRWRPPRLPRPRPRPPKRPRP — higher, 0.388
- RRIRCRPPRLPRPRPRPPMGPRP — higher, 0.155
- RRIRTRPPRLPRPRPRPCLAPRP — lower, -0.307
- RRIRYRPPRLPRPRPRPMGCPRP — within 0.2 log units, -0.0637
- RRIRFRPPRLPRPRPRPPTYPRP — within 0.2 log units, -0.0496
- RRIRFRPPRLPRPRPRPHSLPRP — within 0.2 log units, -0.169
- RRIRLRPPRLPRPRPRPVKLPRP — lower, -0.473
- RRIRFRPPRLPRPRPRPVNIPRP — within 0.2 log units, -0.16
- RRIRDRPPRLPRPRPRPDMCPRP — within 0.2 log units, -0.0138
